Reference: patent US5534428

Tested on: SstI restriction endonuclease (Streptomyces stanford ATCC 29415)
Test: cleavage_in_vitro
Details: pSst105 crude extract; REact 2 buffer, 37 C, 1 h; assay substrate Ad-2 DNA per Example 1.7

Adenovirus-2 DNA gave an activity (units per g cells) of over 400000.
